Data as given in paper doi:10.1101/2020.04.27.064493 (bioRxiv, 2020).

B1: bovine DNMT1 RFTS domain (residues 349-594) (domain or fragment)
chain: PKCTECLQYLDDPELRYEQHPPDAVEEIQILTNERLSIFDANESGFESYEDLPQHKLTCFSVYCKRGHLCPIDTGLIEKDVELLFSGSAKPIYEDDPSPEGGINGKNFGPINEWWIAGFDGGEKALLGFSTSFAEYILMDPSPEYAPLFSVMQEKIYISKIVVEFLQSNPDSTYEDLINKIETTVPPCMLNLNRFTEDSLLRHAQFVVEQVESYDRAGDSDEQPIFLSPCMRDLIKLAGVTLGKRR
B2: H3_(1-24)K9me3/K18C/K23C peptide (peptide)
peptide: not shown
modifications: trimethyl-lysine at K9

Assays:
[1] = molecular target: G76C-mutated ubiquitin (UniProt P0CG48 1-76, G76C); assay: crystal structure
[2] = molecular target: B1; assay: crystal structure

binding result [1]	binding result [2]	Binder
binds		B1
binds	binds	B2
